Data reported in US20230151068A1.

Biological target: biotinylated His-Avi-TEAD (194-411) (UniProt P28347)
Experiment: SSM screen, enrichment after two rounds of sorting

Binder | enrichment score
GSPDEYIERAKECCKKGDITCCLRYFEESGDPNVMLICLFCP (designed binder) [Q18T variant of SEQ ID NO: 1] | -2.28
GSPDEYIEGAKECCKKGDIQCCLRYFEESGDPNVMLICLFCP (designed binder) [R07G variant of SEQ ID NO: 1] | 1.31
GSPDEYIERAKECCKKGDYQCCLRYFEESGDPNVMLICLFCP (designed binder) [I17Y variant of SEQ ID NO: 1] | -9.48
GSPDEGIERAKECCKKGDIQCCLRYFEESGDPNVMLICLFCP (designed binder) [Y04G variant of SEQ ID NO: 1] | -2.21
GSPDEYIERAKECCKFGDIQCCLRYFEESGDPNVMLICLFCP (designed binder) [K14F variant of SEQ ID NO: 1] | -0.5
GSPDEYIERAKECCKKWDIQCCLRYFEESGDPNVMLICLFCP (designed binder) [G15W variant of SEQ ID NO: 1] | -4.75
GSPDEYIERAKECCKKGDLQCCLRYFEESGDPNVMLICLFCP (designed binder) [I17L variant of SEQ ID NO: 1] | 1.28
GSPDEYIERAKECCKKGDIWCCLRYFEESGDPNVMLICLFCP (designed binder) [Q18W variant of SEQ ID NO: 1] | -11.1
GSPDEYIERAGECCKKGDIQCCLRYFEESGDPNVMLICLFCP (designed binder) [K09G variant of SEQ ID NO: 1] | -0.48
GSPDEYIERAKECCKVGDIQCCLRYFEESGDPNVMLICLFCP (designed binder) [K14V variant of SEQ ID NO: 1] | 0.08
GSPDEYIERAKECCAKGDIQCCLRYFEESGDPNVMLICLFCP (designed binder) [K13A variant of SEQ ID NO: 1] | 1.94
GSPDEYIERAKECCFKGDIQCCLRYFEESGDPNVMLICLFCP (designed binder) [K13F variant of SEQ ID NO: 1] | -1.14
GSPDEYIERAKECCKKLDIQCCLRYFEESGDPNVMLICLFCP (designed binder) [G15L variant of SEQ ID NO: 1] | -0.59
GSPDEYIERAKECCKKGDWQCCLRYFEESGDPNVMLICLFCP (designed binder) [I17W variant of SEQ ID NO: 1] | -10.4
GSPDEYIERGKECCKKGDIQCCLRYFEESGDPNVMLICLFCP (designed binder) [A08G variant of SEQ ID NO: 1] | -4.11
GSPDEYIERAKECCKKGAIQCCLRYFEESGDPNVMLICLFCP (designed binder) [D16A variant of SEQ ID NO: 1] | -5.23
GSPDEYIERAKECCLKGDIQCCLRYFEESGDPNVMLICLFCP (designed binder) [K13L variant of SEQ ID NO: 1] | -1.37
GSPDEYDERAKECCKKGDIQCCLRYFEESGDPNVMLICLFCP (designed binder) [I05D variant of SEQ ID NO: 1] | -3.47
GSPDEYIERAKECCKIGDIQCCLRYFEESGDPNVMLICLFCP (designed binder) [K14I variant of SEQ ID NO: 1] | -0.99
GSPDEYIERAKECCKKGIIQCCLRYFEESGDPNVMLICLFCP (designed binder) [D16I variant of SEQ ID NO: 1] | -6.42
GSPDEYIERAKECCKKGYIQCCLRYFEESGDPNVMLICLFCP (designed binder) [D16Y variant of SEQ ID NO: 1] | -3.84

Binder | enrichment score
GSPDEYIERAKECCKKGDIPCCLRYFEESGDPNVMLICLFCP (designed binder) [Q18P variant of SEQ ID NO: 1] | 0.69
GSPDEYIERAKECCWKGDIQCCLRYFEESGDPNVMLICLFCP (designed binder) [K13W variant of SEQ ID NO: 1] | -2.99
GSPDEYIERAKECCKKGDPQCCLRYFEESGDPNVMLICLFCP (designed binder) [I17P variant of SEQ ID NO: 1] | -2.41
GSPDEYIERAKECCKLGDIQCCLRYFEESGDPNVMLICLFCP (designed binder) [K14L variant of SEQ ID NO: 1] | -0.89
GSPGEYIERAKECCKKGDIQCCLRYFEESGDPNVMLICLFCP (designed binder) [D02G variant of SEQ ID NO: 1] | -0.32
GSPDEYIERAKECCKKGVIQCCLRYFEESGDPNVMLICLFCP (designed binder) [D16V variant of SEQ ID NO: 1] | -7.81
GSPDEYIERAKECCKKYDIQCCLRYFEESGDPNVMLICLFCP (designed binder) [G15Y variant of SEQ ID NO: 1] | -1.14
GSPDEYIERAKECCKKIDIQCCLRYFEESGDPNVMLICLFCP (designed binder) [G15I variant of SEQ ID NO: 1] | -1.96
GSPDEYIERAKECCKKGFIQCCLRYFEESGDPNVMLICLFCP (designed binder) [D16F variant of SEQ ID NO: 1] | -1.86
GSPDEYIERAKECCKKGDIYCCLRYFEESGDPNVMLICLFCP (designed binder) [Q18Y variant of SEQ ID NO: 1] | -8.35
GSPDEYIERAKECCKKGWIQCCLRYFEESGDPNVMLICLFCP (designed binder) [D16W variant of SEQ ID NO: 1] | -2.3
GSPDEYIERAKECCKKGDIACCLRYFEESGDPNVMLICLFCP (designed binder) [Q18A variant of SEQ ID NO: 1] | -1.53
GSPDEDIERAKECCKKGDIQCCLRYFEESGDPNVMLICLFCP (designed binder) [Y04D variant of SEQ ID NO: 1] | -1.79
GSPDEYIERAKECCKKGLIQCCLRYFEESGDPNVMLICLFCP (designed binder) [D16L variant of SEQ ID NO: 1] | -8.99
GSPDEYIERAKECCKWGDIQCCLRYFEESGDPNVMLICLFCP (designed binder) [K14W variant of SEQ ID NO: 1] | -2.64
GSPDEYIERAKECCIKGDIQCCLRYFEESGDPNVMLICLFCP (designed binder) [K13I variant of SEQ ID NO: 1] | -1.54
GSPDEYIERAKECCPKGDIQCCLRYFEESGDPNVMLICLFCP (designed binder) [K13P variant of SEQ ID NO: 1] | -10.4
GSPDDYIERAKECCKKGDIQCCLRYFEESGDPNVMLICLFCP (designed binder) [E03D variant of SEQ ID NO: 1] | 0.8
GSPDEYIERAKECCKKGDIICCLRYFEESGDPNVMLICLFCP (designed binder) [Q18I variant of SEQ ID NO: 1] | -11.4
GSPDEYIERAKECCKKGPIQCCLRYFEESGDPNVMLICLFCP (designed binder) [D16P variant of SEQ ID NO: 1] | -4.62
GSPDEYIERAKECCKKVDIQCCLRYFEESGDPNVMLICLFCP (designed binder) [G15V variant of SEQ ID NO: 1] | 0.99

Binder | enrichment score
GSPDEYIERAKGCCKKGDIQCCLRYFEESGDPNVMLICLFCP (designed binder) [E10G variant of SEQ ID NO: 1] | -0.44
GSPDEYIERAKECCVKGDIQCCLRYFEESGDPNVMLICLFCP (designed binder) [K13V variant of SEQ ID NO: 1] | -1.65
GSPDEYIERAKECCKAGDIQCCLRYFEESGDPNVMLICLFCP (designed binder) [K14A variant of SEQ ID NO: 1] | -0.22
GSPDEYIERAKECCKKGDVQCCLRYFEESGDPNVMLICLFCP (designed binder) [I17V variant of SEQ ID NO: 1] | 4.17
GSPDEYIERAKECCKKGDIVCCLRYFEESGDPNVMLICLFCP (designed binder) [Q18V variant of SEQ ID NO: 1] | -0.77
GSPDEYIERAKECCKYGDIQCCLRYFEESGDPNVMLICLFCP (designed binder) [K14Y variant of SEQ ID NO: 1] | -0.68
GSPDEYIERAKECCKKPDIQCCLRYFEESGDPNVMLICLFCP (designed binder) [G15P variant of SEQ ID NO: 1] | -1.25
GSPDEYIERAKECCKKFDIQCCLRYFEESGDPNVMLICLFCP (designed binder) [G15F variant of SEQ ID NO: 1] | -1.98
GSPDEYIERAKECCKKGDILCCLRYFEESGDPNVMLICLFCP (designed binder) [Q18L variant of SEQ ID NO: 1] | -4.91
GSPDEYIERAKECCKKGDIFCCLRYFEESGDPNVMLICLFCP (designed binder) [Q18F variant of SEQ ID NO: 1] | -4.21
GSPDEYIERAKECCKPGDIQCCLRYFEESGDPNVMLICLFCP (designed binder) [K14P variant of SEQ ID NO: 1] | -10.6
GSPDEYIERAKECCKKGDAQCCLRYFEESGDPNVMLICLFCP (designed binder) [I17A variant of SEQ ID NO: 1] | -4.36
GSPDEYIERAKECCKKGDFQCCLRYFEESGDPNVMLICLFCP (designed binder) [I17F variant of SEQ ID NO: 1] | -3.5
GSPDGYIERAKECCKKGDIQCCLRYFEESGDPNVMLICLFCP (designed binder) [E03G variant of SEQ ID NO: 1] | -0.62
GSPDEYIERAKECCKKADIQCCLRYFEESGDPNVMLICLFCP (designed binder) [G15A variant of SEQ ID NO: 1] | 1.89
GSPDEYIERAKECCYKGDIQCCLRYFEESGDPNVMLICLFCP (designed binder) [K13Y variant of SEQ ID NO: 1] | -1.29
GSDDEYIERAKECCKKGDIQCCLRYFEESGDPNVMLICLFCP (designed binder) [P01D variant of SEQ ID NO: 1] | -0.65
GSPDEYGERAKECCKKGDIQCCLRYFEESGDPNVMLICLFCP (designed binder) [I05G variant of SEQ ID NO: 1] | -3.97
GSGDEYIERAKECCKKGDIQCCLRYFEESGDPNVMLICLFCP (designed binder) [P01G variant of SEQ ID NO: 1] | 1.7
GSPDEYIGRAKECCKKGDIQCCLRYFEESGDPNVMLICLFCP (designed binder) [E06G variant of SEQ ID NO: 1] | -1.15
